Results from paper PMC5885369, “2-Oxoglutarate regulates binding of hydroxylated hypoxia-inducible factor to prolyl hydroxylase domain 2† †Electronic supplementary information (ESI) available: Details of experimental procedures and additional experiments. See DOI: 10.1039/c8cc00387d” (Chemical Communications (Cambridge, England), 2018).
Square brackets hold non-standard residues; d marks the D form. Ends that are not written are not given here. Hyp = O=C(O)[C@@H]1C[C@@H](O)CN1

Target: T1, prolyl hydroxylase domain 2, PHD2_(181–426) (human, UniProt Q9GZT9 181-426)
T1 construct: Used apo, or with Fe(II), Zn(II), 2OG, succinate or fumarate; also called tPHD2; apo-tPHD2; source: recombinantly expressed
Test: ITC; apo-tPHD2
Conditions: both partners purified

T1 sequence (Q9GZT9 181-426): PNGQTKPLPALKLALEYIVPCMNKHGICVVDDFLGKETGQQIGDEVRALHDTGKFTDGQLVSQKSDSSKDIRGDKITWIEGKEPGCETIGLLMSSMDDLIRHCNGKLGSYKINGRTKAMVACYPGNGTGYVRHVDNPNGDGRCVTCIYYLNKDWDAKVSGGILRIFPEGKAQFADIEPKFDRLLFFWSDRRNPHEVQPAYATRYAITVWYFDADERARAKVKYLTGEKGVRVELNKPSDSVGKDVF

Kd: 4.6 ± 1.4 µM
Binder: DLDLEMLA[Hyp]YIPMDDDFQL [hydroxylated 19-mer HIF-1α CODD peptide]
